# According to the supplement of paper PMC10598134:
# ± gives the standard deviation.
# Assay: collision cross section of modified peptide (TIMS, N2, iRT-aligned); higher = larger / more extended gas-phase ion
# Outline: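 Collision cross section was derived from the Mason-Schamp equation. Each value averages 1–3 technical replicates of the most abundant feature per charge state, measured on a timsTOF Pro/HT in dda-PASEF mode (nitrogen, ~2.4 mbar) after a 120-min nanoflow C18 gradient at 60 °C. Synthetic peptide pools (~100 fmol/µL in 2% acetonitrile/0.1% formic acid, iRT standard spiked 1:40) were identified with MaxQuant, and 1/K0 was calibrated with three reference ions and aligned run-wise to the median iRT peptide deviation.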
# [1] = charge state: 3, modification: Trimethyl (K)
# [2] = charge state: 2, modification: hydroxyisobutyryl
# [3] = charge state: 2, modification: Citrullination (R)
# [4] = charge state: 3, modification: Methyl (R)
# [5] = charge state: 2, modification: Hydroxyproline
# [6] = charge state: 3, modification: Citrullination (R)
# [7] = charge state: 2, modification: Methyl (R)
# [8] = charge state: 3, modification: Hydroxyproline
# [9] = charge state: 2, modification: Acetyl (K)
# [10] = charge state: 3, modification: Acetyl (K)
# [11] = charge state: 2, modification: Biotin
# [12] = charge state: 3, modification: Biotin
# [13] = charge state: 2, modification: Butyryl
# [14] = charge state: 3, modification: Butyryl
# [15] = charge state: 2, modification: Crotonyl
# [16] = charge state: 3, modification: Crotonyl
# [17] = charge state: 2, modification: Dimethyl (K)
# [18] = charge state: 3, modification: Dimethyl (K)
# [19] = charge state: 2, modification: Formyl
# [20] = charge state: 2, modification: Glutarylation
# [21] = charge state: 3, modification: Glutarylation
# [22] = charge state: 2, modification: GlyGly (K)
# [23] = charge state: 3, modification: GlyGly (K)
# [24] = charge state: 2, modification: Malonyl
# [25] = charge state: 2, modification: Methyl (K)
# [26] = charge state: 3, modification: Methyl (K)
sequence,measurement,setting,value
GAEKTEVAEPR [_GAEK(Trimethyl (K))TEVAEPR_],collision cross section,[1],447.07 ± 3.3 Å²
GAEKTEVAEPR [_GAEK(hydroxyisobutyryl)TEVAEPR_],collision cross section,[2],376.1 ± 9 Å²
GAPGGRGAQLSVPSPAR [_GAPGGR(Citrullination (R))GAQLSVPSPAR_],collision cross section,[3],412.31 ± 0.55 Å²
GAPGGRGAQLSVPSPAR [_GAPGGR(Methyl (R))GAQLSVPSPAR_],collision cross section,[4],494.35 ± 0.66 Å²
GAPGPQGPPGPPGK [_GAPGPQGPPGPP(Hydroxyproline)GK_],collision cross section,[5],359.87 ± 0.26 Å²
GARLPGPVSSAR [_GAR(Citrullination (R))LPGPVSSAR_],collision cross section,[3],355.27 ± 6 Å²
same,collision cross section,[6],446.63 Å²
GARLPGPVSSAR [_GAR(Methyl (R))LPGPVSSAR_],collision cross section,[7],360.12 ± 1.2 Å²
same,collision cross section,[4],474.74 ± 8.7 Å²
GATVTRGVPPPPTVR [_GATVTR(Citrullination (R))GVPPPPTVR_],collision cross section,[3],398.42 ± 2.1 Å²
same,collision cross section,[6],501.66 Å²
GATVTRGVPPPPTVR [_GATVTR(Methyl (R))GVPPPPTVR_],collision cross section,[4],512.38 ± 1.6 Å²
GDAGEPGR [_GDAGEP(Hydroxyproline)GR_],collision cross section,[5],292.85 ± 1.1 Å²
GDAGEPGRPGSPGK [_GDAGEP(Hydroxyproline)GRPGSPGK_],collision cross section,[8],446.53 ± 1.3 Å²
GDAGEPGRPGSPGK [_GDAGEPGRPGSP(Hydroxyproline)GK_],collision cross section,[5],357.84 ± 0.8 Å²
GDIGETGVPGAEGPR [_GDIGETGVPGAEGP(Hydroxyproline)R_],collision cross section,[5],384.38 ± 0.27 Å²
GDKGDAGEPGR [_GDKGDAGEP(Hydroxyproline)GR_],collision cross section,[5],331.51 ± 0.55 Å²
same,collision cross section,[8],414.61 ± 0.42 Å²
GDNGSVGEPGPK [_GDNGSVGEP(Hydroxyproline)GPK_],collision cross section,[5],344.87 ± 1.1 Å²
GDPGLIGPK [_GDP(Hydroxyproline)GLIGPK_],collision cross section,[5],312.86 ± 1.3 Å²
GDQGEPGPSGNPGK [_GDQGEPGPSGNP(Hydroxyproline)GK_],collision cross section,[5],343.56 ± 0.79 Å²
GDRGEIGPPGPR [_GDRGEIGPP(Hydroxyproline)GPR_],collision cross section,[5],368.56 ± 1.9 Å²
same,collision cross section,[8],424.63 ± 1.2 Å²
GDTGLPGPQGIPGGVGSPGR [_GDTGLPGPQGIP(Hydroxyproline)GGVGSPGR_],collision cross section,[5],430.06 ± 1.1 Å²
GDTGLPGPQGIPGGVGSPGR [_GDTGLPGPQGIPGGVGSP(Hydroxyproline)GR_],collision cross section,[8],499.06 ± 39 Å²
GDYDLNAVR [_GDY(Nitro (Y))DLNAVR_],collision cross section,"charge state: 2, modification: Nitro (Y)",344.3 ± 0.72 Å²
GDYDLNAVR [_GDY(Phospho (Y))DLNAVR_],collision cross section,"charge state: 2, modification: Phospho (Y)",348.87 ± 0.066 Å²
GEAGPTGPQGEPGVR [_GEAGPTGPQGEP(Hydroxyproline)GVR_],collision cross section,[5],382.58 ± 0.36 Å²
GEAGPTGPQGEPGVRGIR [_GEAGPTGPQGEP(Hydroxyproline)GVRGIR_],collision cross section,[8],499.21 ± 1.2 Å²
GEGGFGGRGGGR [_GEGGFGGR(Citrullination (R))GGGR_],collision cross section,[3],329.76 ± 0.38 Å²
GEGGFGGRGGGR [_GEGGFGGR(Methyl (R))GGGR_],collision cross section,[7],345.55 ± 1 Å²
same,collision cross section,[4],413.1 Å²
GEIGPPGPR [_GEIGPP(Hydroxyproline)GPR_],collision cross section,[5],319.92 ± 1.1 Å²
GEKGDPGLIGPK [_GEKGDP(Hydroxyproline)GLIGPK_],collision cross section,[5],375.69 ± 1.9 Å²
same,collision cross section,[8],437 ± 1.3 Å²
GEKGLPGLAGDHGEFGEK [_GEKGLP(Hydroxyproline)GLAGDHGEFGEK_],collision cross section,[8],558.56 ± 0.81 Å²
GEKGNPGVGTQGPR [_GEKGNP(Hydroxyproline)GVGTQGPR_],collision cross section,[5],371.11 ± 0.55 Å²
same,collision cross section,[8],431.33 ± 1.3 Å²
GEPGIPAIPGIR [_GEPGIP(Hydroxyproline)AIPGIR_],collision cross section,[5],346.11 ± 0.79 Å²
GEPGIPAIPGIRGPK [_GEPGIP(Hydroxyproline)AIPGIRGPK_],collision cross section,[5],382.81 ± 0.54 Å²
same,collision cross section,[8],511.46 ± 1.2 Å²
GEPGLPGHPGK [_GEPGLP(Hydroxyproline)GHPGK_],collision cross section,[5],337.36 ± 0.3 Å²
GEPGQGLRGLQGPPGK [_GEPGQGLRGLQGPP(Hydroxyproline)GK_],collision cross section,[5],408.26 ± 1.5 Å²
same,collision cross section,[8],445.73 ± 1.3 Å²
GEQGEPGAPGIR [_GEQGEP(Hydroxyproline)GAPGIR_],collision cross section,[5],349.07 ± 0.25 Å²
GEQGEPGAPGIRTGIQGLK [_GEQGEPGAP(Hydroxyproline)GIRTGIQGLK_],collision cross section,[5],450.73 ± 0.4 Å²
same,collision cross section,[8],502.77 ± 1.3 Å²
GERGFPGYPGPK [_GERGFP(Hydroxyproline)GYPGPK_],collision cross section,[5],370.65 ± 1.8 Å²
GERGFPGYPGPK [_GERGFPGYP(Hydroxyproline)GPK_],collision cross section,[8],456.01 ± 1.2 Å²
GERGPPGPPGK [_GERGPPGPP(Hydroxyproline)GK_],collision cross section,[5],326.03 ± 0.88 Å²
same,collision cross section,[8],407.49 ± 18 Å²
GERGPPGPPGR [_GERGPP(Hydroxyproline)GPPGR_],collision cross section,[5],333.05 Å²
GERGPPGPPGR [_GERGPPGP(Hydroxyproline)PGR_],collision cross section,[8],409.61 ± 0.34 Å²
GERGVPGER [_GERGVP(Hydroxyproline)GER_],collision cross section,[5],328.27 ± 0.79 Å²
same,collision cross section,[8],402.04 Å²
GETASKLQSEISR [_GETASK(Acetyl (K))LQSEISR_],collision cross section,[9],386.09 ± 2 Å²
same,collision cross section,[10],464.45 ± 0.086 Å²
GETASKLQSEISR [_GETASK(Biotin)LQSEISR_],collision cross section,[11],422.42 ± 2 Å²
same,collision cross section,[12],475.24 ± 0.34 Å²
GETASKLQSEISR [_GETASK(Butyryl)LQSEISR_],collision cross section,[13],390.84 ± 0.85 Å²
same,collision cross section,[14],467.14 ± 2.9 Å²
GETASKLQSEISR [_GETASK(Crotonyl)LQSEISR_],collision cross section,[15],388.79 ± 0.79 Å²
same,collision cross section,[16],466.94 ± 1.6 Å²
GETASKLQSEISR [_GETASK(Dimethyl (K))LQSEISR_],collision cross section,[17],398.3 ± 1.1 Å²
same,collision cross section,[18],460.41 ± 2.6 Å²
GETASKLQSEISR [_GETASK(Formyl)LQSEISR_],collision cross section,[19],382.6 ± 1.7 Å²
GETASKLQSEISR [_GETASK(Gluratylation)LQSEISR_],collision cross section,[20],403.5 ± 0.6 Å²
same,collision cross section,[21],470.57 Å²
GETASKLQSEISR [_GETASK(GlyGly (K))LQSEISR_],collision cross section,[22],415.57 ± 0.85 Å²
same,collision cross section,[23],455.84 ± 1.3 Å²
GETASKLQSEISR [_GETASK(Malonyl)LQSEISR_],collision cross section,[24],395.19 ± 0.023 Å²
GETASKLQSEISR [_GETASK(Methyl (K))LQSEISR_],collision cross section,[25],400.35 Å²
same,collision cross section,[26],463.3 ± 3.8 Å²
GETASKLQSEISR [_GETASK(Propionyl)LQSEISR_],collision cross section,"charge state: 2, modification: Propionyl",387.23 ± 0.65 Å²
GETASKLQSEISR [_GETASK(Succinyl)LQSEISR_],collision cross section,"charge state: 2, modification: Succinyl",399.77 ± 2 Å²
GETASKLQSEISR [_GETASK(Trimethyl (K))LQSEISR_],collision cross section,[1],463.43 ± 1.5 Å²
GETASKLQSEISR [_GETASK(hydroxyisobutyryl)LQSEISR_],collision cross section,[2],394.7 ± 0.81 Å²
GEVGAGAGPGAQAGPSAKR [_GEVGAGAGPGAQAGPSAK(Acetyl (K))R_],collision cross section,[9],420.33 ± 2.6 Å²
same,collision cross section,[10],478.86 ± 2.4 Å²
GEVGAGAGPGAQAGPSAKR [_GEVGAGAGPGAQAGPSAK(Biotin)R_],collision cross section,[11],440.5 ± 1.2 Å²
same,collision cross section,[12],470.58 ± 2.6 Å²
GEVGAGAGPGAQAGPSAKR [_GEVGAGAGPGAQAGPSAK(Butyryl)R_],collision cross section,[13],426.32 ± 1.1 Å²
same,collision cross section,[14],483.04 ± 4.4 Å²
GEVGAGAGPGAQAGPSAKR [_GEVGAGAGPGAQAGPSAK(Crotonyl)R_],collision cross section,[15],426.44 ± 0.55 Å²
same,collision cross section,[16],497.45 ± 1.2 Å²
GEVGAGAGPGAQAGPSAKR [_GEVGAGAGPGAQAGPSAK(Dimethyl (K))R_],collision cross section,[17],422.35 ± 0.53 Å²
same,collision cross section,[18],490.58 ± 1.6 Å²
GEVGAGAGPGAQAGPSAKR [_GEVGAGAGPGAQAGPSAK(Formyl)R_],collision cross section,[19],415.62 ± 0.18 Å²
same,collision cross section,"charge state: 3, modification: Formyl",470.58 ± 2.9 Å²
GEVGAGAGPGAQAGPSAKR [_GEVGAGAGPGAQAGPSAK(Gluratylation)R_],collision cross section,[20],425.64 ± 1.1 Å²
same,collision cross section,[21],490.81 ± 0.95 Å²
GEVGAGAGPGAQAGPSAKR [_GEVGAGAGPGAQAGPSAK(GlyGly (K))R_],collision cross section,[22],426.91 ± 0.84 Å²
same,collision cross section,[23],469.61 ± 1.1 Å²
GEVGAGAGPGAQAGPSAKR [_GEVGAGAGPGAQAGPSAK(Malonyl)R_],collision cross section,[24],415.94 ± 0.58 Å²
same,collision cross section,"charge state: 3, modification: Malonyl",468.8 ± 1.8 Å²
GEVGAGAGPGAQAGPSAKR [_GEVGAGAGPGAQAGPSAK(Methyl (K))R_],collision cross section,[25],422.57 ± 1.8 Å²
same,collision cross section,[26],489.3 ± 3.6 Å²
